Laboratory results taken from patent US20050050588, “Systemic small RNA signaling system in plants” (published 2005).

Legend:
[1] = target: T1, CMV movement protein (CMV-MP) (Cucumber mosaic virus) (UniProt Q83252); test: cell_activity
T1 sequence: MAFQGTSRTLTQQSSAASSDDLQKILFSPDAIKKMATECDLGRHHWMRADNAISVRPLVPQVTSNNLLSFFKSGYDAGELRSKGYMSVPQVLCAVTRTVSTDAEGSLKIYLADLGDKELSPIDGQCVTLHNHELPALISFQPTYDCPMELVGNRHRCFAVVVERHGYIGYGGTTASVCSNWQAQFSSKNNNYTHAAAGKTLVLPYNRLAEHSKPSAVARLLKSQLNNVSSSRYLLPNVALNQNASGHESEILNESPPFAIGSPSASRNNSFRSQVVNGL

[2] = target: T2, CmPSRB1 (recombinant PSRB1) (Cucurbita maxima); test: cell_activity; settings: cell-to-cell movement, binding not directly measured
T2 chain: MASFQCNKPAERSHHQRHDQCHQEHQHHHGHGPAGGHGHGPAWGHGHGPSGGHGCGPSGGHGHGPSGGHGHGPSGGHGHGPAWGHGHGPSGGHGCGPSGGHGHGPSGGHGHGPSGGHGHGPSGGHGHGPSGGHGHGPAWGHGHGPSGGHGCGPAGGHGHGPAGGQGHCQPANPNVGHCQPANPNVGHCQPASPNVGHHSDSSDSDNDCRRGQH

KNOTTED1 (KN1) = target: T3, KNOTTED1 (KN1) (UniProt P24345); test: cell_activity
T3 sequence: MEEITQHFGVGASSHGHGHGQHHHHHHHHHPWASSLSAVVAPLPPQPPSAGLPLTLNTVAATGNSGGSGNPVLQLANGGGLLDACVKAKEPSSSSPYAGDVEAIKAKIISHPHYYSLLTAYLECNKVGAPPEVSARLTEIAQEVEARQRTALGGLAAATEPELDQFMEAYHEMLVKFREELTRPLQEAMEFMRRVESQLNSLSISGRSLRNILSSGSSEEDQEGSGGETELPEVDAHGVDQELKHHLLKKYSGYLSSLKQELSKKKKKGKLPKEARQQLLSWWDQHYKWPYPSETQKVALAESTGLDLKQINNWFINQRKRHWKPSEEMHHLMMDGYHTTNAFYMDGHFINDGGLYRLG

[3] = target: T2, CmPSRB1 (recombinant PSRB1); test: EMSA; competition gel shift; 20 mM Hepes pH 7.0, 50 mM KCl, 1 mM EDTA, 30 C; settings: tags: none (native, pET15b, E. coli); 3' 2 nt overhang
Protocol: Electrophoretic mobility-shift assays were carried out as described (S12). Reactions were assembled on ice in 10 μl of binding buffer (20 mM Hepes, pH 7.0, 50 mM KCl, 1 mM EDTA, 1 mM DTT, and 5% [v/v] glycerol). An equal amount of ³²P end-labeled 25 nt ss- or dsRNA was used in assays with various concentrations of purified and desalted R-CmPSRB1. Reaction mixtures were incubated at 30° C. for 20 min and then placed on ice. Reactions were then resolved on a 5% (v/v) nondenaturing polyacrylamide gel that was pre-run for 30 min at 50 V. Electrophoresis was typically carried out at 4° C. and 200 V. The gel was then dried and autoradiographed.

25 nt dsRNA (overhang type not stated)
activity (% injections with movement) ([1]; with FITC-dextran, 0 of 13): 0

25 nt ssDNA
activity (% injections with movement) ([2]; 0 of 14): 0

CmRINGP RNA (1 kb)
activity (% injections with movement) ([1]; cell-to-cell movement, 10 of 10): 100 | activity (% injections with movement) (KNOTTED1 (KN1); cell-to-cell movement, 0 of 12): 0 | activity (% injections with movement) ([2]; 0 of 8): 0

GGAAAACUACCUGUUCCAUGGCCAA
activity (% injections with movement) ([1]; cell-to-cell movement, 0 of 10): 0

KN1 RNA (antisense)
activity (% injections with movement) (KNOTTED1 (KN1); CITED includes previous studies (S13), 2 of 10, cited from earlier work): 20

KN1 RNA (sense)
activity (% injections with movement) (KNOTTED1 (KN1); CITED includes previous studies (S13), 20 of 22, cited from earlier work): 91

B1: 25 nt dsRNA 3' 2 nt overhang (FK221/FK224) (dsRNA)
RNA 1: GGAAAACUACCUGUUCCAUGGCCAA
RNA 2: GGCCAUGGAACAGGUAGUUUUCCAG
Kd [3]: 30.6 µM
